Results: the DeepSol protein solubility set

test: soluble on expression in E. coli; label from the status in PepcDB or PDB records

| Sequence | soluble on expression in E. coli |
| --- | --- |
| PGKGEGSPVGIAILGYGTVGSQVLRLLTENHNDFQHRAGGPLEIKGVAASSVEKHRGSLADQLGLLTDDARSLIARDDVDIVVEVIGGIDYPRELILEALHSGKSVVTANKALVAAHSEELAAAADEAGVDLYFEAAVAAAIPVLGPLRRSLAGDQIQSVAGIVNGTTNFILDAMDSTGASYDDMLAEATRLGYAEADPTADVEGHDAASKAAILASLAFHTRVTYADVYCEGISKITADDINAAKEAGFTIKLLAICERLNVDGVEKVSARVHPTLVPRNHPLASVDKSFNAIFVEAEAAGRLMFYGNGAGGNPTASAVLGDIVGAARNKVFGGRAPGESTYADLPIAPFGEVPTRFHIDMEVEDRVGVLADLAKTFSNHGISLRTVRQAEKDGHARLIVVTHTAKESELEATVEQIKNSDSVKKINSVIRLAG | soluble |
| MGSDKIHHHHHHMPLLPQPAGSVTTGRYTFAAAQVHAQTLTVCIVCNNTLYPAGSAVMSRVNVSLLQSGMILSEDVTDSNGRKLLCAGDAITEKHLRILKIWGVAEVDVEGIEPADAARSALDGLDPLRVEAAAARATARFALNDLQYEPVCMLMQCSVAALAKGADPVAPLPDYSVLPAAPMPSAPPALADMLRDDTRLGSLPPVFHRLVDVVNDPRSSATDMAEVIANDTDLSARLLRLVNSTFYGLRAKVDTITRAVTIIGSNQLVSLAMGAVMTTFFKGLPNSIVDMRSFWEHSVACGVAARLLASLHRMPNTERFFVAGLLHDIGRLAVYRLLPEHSLYMLTESRRRGISMRAMEREVLGFSHDRLGGRLLKEWRCPVSLERNVALHHTPGSGHGGLESAIINVADILAHTLEFGTSGEVLVPRLEQAVWDALALPAGTLEQAAAQMDYQVHEIIRFFELDE | not soluble |
| MDNPTTPIAVVGPTASGKSALGVSLAHHLNGEVVNVDSMQLYKGMDIGTAKLTLEEREGIVHHLLDVWDISETASVARYQSQAIAVVEDIQRRGKTPILVGGSMLYVQSLVDDWQFPPTDPSVRAKWESKLNEVGVEALHALLAQKDPQAASIIELKDPRRTVRALEVIELTGKPFNASQPPKNAPPRWNTQIIGLGTNTEWLNPRIDLRTELMFEKGFVHEVENLVGKGLIADSTAGHAIGYAQVLQHFAGELSVDEMIEHTKIGTRRYVRRQRSWFKRDPRIHWIDASGDTFSMALSLLS | not soluble |
| SNPFAHLAEPLDPVQPGKKFFNLNKLEDSRYGRLPFSIRVLLEAAIRNCDEFLVKKQDIENILHWNVTQHKNIEVPFKPARVILQDFTGVPAVVDFAAMRDAVKKLGGDPEKINPVCPADLVIDHSIQVDFNRRADSLQKNQDLEFERNRERFEFLKWGSQAFHNMRIIPPGSGIIHQVNLEYLARVVFDQDGYYYPDSLVGTDSHTTMIDGLGILGWGVGGIEAEAVMLGQPISMVLPQVIGYRLMGKPHPLVTSTDIVLTITKHLRQVGVVGKFVEFFGPGVAQLSIADRATIANMCPEYGATAAFFPVDEVSITYLVQTGRDEEKLKYIKKYLQAVGMFRDFNDPSQDPDFTQVVELDLKTVVPCCSGPKRPQDKVAVSDMKKDFESCLGAKQGFKGFQVAPEHHNDHKTFIYDNTEFTLAHGSVVIAAITSCTNTSNPSVMLGAGLLAKKAVDAGLNVMPYIKTSLSPGSGVVTYYLQESGVMPYLSQLGFDVVGYGCMTCIGNSGPLPEPVVEAITQGDLVAVGVLSGNRNFEGRVHPNTRANYLASPPLVIAYAIAGTIRIDFEKEPLGVNAKGQQVFLKDIWPTRDEIQAVERQYVIPGMFKEVYQKIETVNESWNALATPSDKLFFWNSKSTYIKSPPFFENLTLDLQPPKSIVDAYVLLNLGDSVTTDHISPAGNIARNSPAARYLTNRGLTPREFNSYGSRRGNDAVMARGTFANIRLLNRFLNKQAPQTIHLPSGEILDVFDAAERYQQAGLPLIVLAGKEYGAGSSRDWAAKGPFLLGIKAVLAESYERIHRSNLVGMGVIPLEYLPGENADALGLTGQERYTIIIPENLKPQMKVQVKLDTGKTFQAVMRFDTDVELTYFLNGGILNYMIRKMAK | soluble |
| MERKISDEECPVRKSMQIFAGKWTLLIIFQINRRIIRYGELKRAIPGISEKMLIDELKFLCGKGLIKKKQYPEVPPRVEYSLTPLGEKVLPIIDEIAKFGMENL | soluble |
| MKLKKLQIEPTTFCTLDCEYCHRKSIPPQDLPLEVLDRVNGVAKEYVIYGYGEPLLYPDFFKRIEGFDGKVVISTNGMLDSDILDLADKVGVSIDVNDKFRKGLEVEKALEVLRKLGERGIAEVVVTKDNLELLPAFFERIAEHGSGMLATNVVASNPAIYEQGVYFECSRITVEKVLGLDESILVEAIKDCSRGGGEALRRYKHLLKEVYSKGYSINLLAIFGRKGRVETAFKAEGVFEMLRDLAGDYGVELIEPSFFGDSKARECPYRDSAFLRVDGKISSCMSFAYTHTEYVDGHYKKVEKFCPGNVLKEDIDDVIGKMAEFERVRADMENFPWCADCPYVEGCWYAETNVDCYANLPSCSECLYSSGIAKCLLGD | not soluble |
| MGSDKIHHHHHHNEKQDWVGTWTASPQPTWGTDFALPVKMVPKLENQTIRQTVRTSVGGRRFRIVLSNEYSNVPIQIGEIRAARAGEDSKITAGTDRAVTFGGQAKATVPAGAPLVSDPVELPLDALSRLSISVYLPQPTPIATFHWDGKQTAYIGDGNQTASETIAAAQTTDARTLVSEILVDAPANNGAVIAIGDSITDGNGATLDADNRWPDVLAERLVSKQVSVLNAGISGARLLDDAMGVKASARFNRDVLAQPGVKAVILLIGINDISWPGTPFAPEKSLPSLAALTTGYLQLAAQAHAHNLIIVGGTLTPFEGALSGTPLDAYYTPEKEALRQKVNNWIRTSGAFDAVVDFDLLLRDPLHPTRLLPEFDSGDHLHPGDKGNRAMAEAIDLGQLIKN | not soluble |
| MSLLNSVSAIFLATAMTFAALPQDAQAQDYRFNTVQVDGNQRIETSTIISRMGIERGKTISAGALNDAYQRLLDSGVFETVELIPRGNTLVVKVVEHPTINRINFEGNRRVKDETLEGAIGSQSRRVFTPEQAERDAATIAEIYSTQGRVAATVVPRIIRRSDNRVDLVFEISEGDTIEIERVSFVGNRVFSDRRLRRILETKQAGFLRTFIRSDTFIADRIEFDKQVLRDFYLSRGHVDFRVNSANVEFTRERDAFFLVMDVTEGQQFSFGKITTVSEIPGVEAPAYQDVLKIKPGVVYSPSLVENSIARMERLGLKNGVDFLRVEPRITRNDRDLTLDIEFALVKGPRIFVERIDIEGNTTTLDQVIRRQFRTVEGDPFNPREIRESAERIRALGFFGDANVETREGSTPAQVIVDVDVEEKPTGSLSFGGSYSVSDGFGVAIGLTEDNWLGRGQRLGLTLSTAQDAEQYVLSFTEPQLLGRDLRFDIDLGVANTNSSFASYDTERAFFAPGITFRLGELSTLQLRYRWEASEMVQRTATTVSGAVIASEIAQGKKSSSALGLTYTYDSRIGGLNPNAGVLFEVGVDAAGLGGDNEYFKTSAKAIAQTRVWHEEITLRASLDVGAFTWQGSGFSRAIDRFVIGPNTFRGFEPAGVGPRDQSNGVDDAIGGNYYAVARFEAEFPLGLPEELGLRGGLFYDVGNVWDVSDVNTAGGTIVGADGSFRHVIGFSLLWTTAFGPLRFNFSKALKKETFDKEQSFDLTIQAREGHHHHHH | not soluble |
| MYDVVGVRFKKAGKVYYFDPNQFDISENEFVIVETVRGIEYGKVVITKKQVDENDVVLPLKKVIRIANENDRTIVEENKHAAKEAYQVCQQKVVEHNLDMKLVDVEYTFDRNKIIFYFTADGRIDFRELVKDLAAIFRTRIELRQIGVRDEAKMLGGIGPCGRMLCCSTFLGDFEPVSIKMAKDQNLSLNPAKISGLCGRLMCCLKYENDEYEAAKEQLPDLDQRIQTPHGTGRVIGLNILERLIQVELVDKERIVEYTLDELVNKGVVSSQTTDLEHHHHHH | not soluble |
